Reference: the nanobody polyreactivity screen of Harvey et al. (2022)

Assay: yeast display, Sf9 membrane polyspecificity reagent, FACS + sequencing; frameworks hold sequencing errors
How it was run: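 Nanobodies from a synthetic yeast display library (Saccharomyces cerevisiae BJ5465), induced 36–48 hours with galactose, were stained 1 hour at 4 °C with 10% biotinylated, detergent-solubilized Sf9 membrane reagent, enriched on streptavidin microbeads, then FACS-sorted. Anti-HA (expression) and streptavidin (reagent binding) fluorescence set low and high (top ~1%) gates. Polyreactivity labels come from the gate of origin. Genes were colony-PCR amplified, MiSeq 2 × 250 sequenced and filtered by CDR length.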

Sequence | polyreactivity (PSR sort gate)
QVQLVESGGGLVQAGGSLRLSCAASGSTFYLYAMGWYRQAPGKERELVAAIRGGGITNYADSVKGRFTISRDNAKNTVYLQINSLKPEDTAVYYCAADSTLRGFDYWGQGTQVTVSS | high polyreactivity
QVQLVESGGGLVQAGGSLRLSCAASGSTFYLYAMGWYRQAPGKERELVAAISWSGDSTYYADSVKGRFTISRDNAKNTVYLQMNSLKPEDTAVYYCAAEFYWGDLSYWGQGTQVTVSS | high polyreactivity
QVQLVESGGGLVQAGGSLRLSCAASGSTFYLYAMGWYRQAPGKERELVARISSSGGRTYYADSVKGRFTISRDNAKNTVYLQMNSLKPEDTAVYYCAASSFTSSYNYWGQGTQVTVSS | high polyreactivity
QVQLVESGGGLVQAGGSLRLSCAASGSTFYLYVMGWYRQAPGKERELVAAIRRSGTRTYYADSVKGRFTISRDNAKNTVYLQMNSLKPEDTAVYYCAARYSRPSKAYGYWGQGTQVTVSS | high polyreactivity
QVQLVESGGGLVQAGGSLRLSCAASGSTFYNYAMGWYRQAPGKERELVAAISSSGGRTYYADSVKGRFTISRDNAKNTVYLQMNSLKPEDTAVYYCAASGRKNGMNYWGQGTQVTVSS | high polyreactivity
QVQLVESGGGLVQAGGSLRLSCAASGSTFYNYAMGWYRQAPGKERELVAAITSSGDRTYYADSVKGRFTISRDNAKNTVYLQMNSLKPEDTAVYYCATRRYFRYEYWGQGTQVTVSS | low polyreactivity
QVQLVESGGGLVQAGGSLRLSCAASGSTFYPYAMGWYIQAPGKERELVARISSDGSTYADSVKGRFTISRDNAKNTVYLQMNSLKPEDTAVYYCNADAGTGVGWWDDYDYWGQGTQVTVSS | low polyreactivity
QVQLVESGGGLVQAGGSLRLSCAASGSTFYPYAMGWYRQAPGKERELVAAISSGGSTNYADSVKGRFTISRDNAKYTVYLQMNSLKPEDTAVYYCAAASGSRRHGYWGQGTQVTVSS | high polyreactivity
QVQLVESGGGLVQAGGSLRLSCAASGSTFYPYAMGWYRQAPGKERELVAAISSGGSTSYADSVKGRFTISRDNAKNTVYLQMNSLKPEDTEVYYCNASSPGAVPVYDYDYWGQGTQVTVSS | low polyreactivity
QVQLVESGGGLVQAGGSLRLSCAASGSTFYPYAMGWYRQAPGKERELVAAISYSGGSTYYADSVKGRFTISRDNAKNTVYLQMNSLKPEDTAVYYCAAYYRVYGASYDYWGQGTQVTVSS | high polyreactivity
QVQLVESGGGLVQAGGSLRLSCAASGSTFYPYAMGWYRQAPGKERELVAAITVSGGSTYYADSVKGRFTISRDNAKNTVYLQMNSLKPEDTAVYYCAVDGDPVFYTTYYYSYYYWGQGTQVTVSS | low polyreactivity
QVQLVESGGGLVQAGGSLRLSCAASGSTFYPYAMGWYRQAPGKERELVAAITYRGGSTYYADSVKGRFTISRDNAKNTVYLQMNSLKPEDTAVYYCAADIGRHTDNYDPRYDYWGQGTQVTVSS | low polyreactivity
QVQLVESGGGLVQAGGSLRLSCAASGSTFYPYAMGWYRQATGKERELVAAISSGGSTSYADSVKGRFTISRDNAKNTVYLQMNSLKPEDTAVYFCNASSPGAVPVYDYDYWGQGTQVTVSS | low polyreactivity
QVQLVESGGGLVQAGGSLRLSCAASGSTFYPYSMGWYRQAPGKERELSTYADSVKGRFTISRDNAKNSVYLQMNSLKPEDTAVYYCAALHWRWYDYWGQGTQVTVSS | low polyreactivity
QVQLVESGGGLVQAGGSLRLSCAASGSTFYPYVMGWYRQAPGKEREFVAAISKSGGSTYYADSVKGRFTISRDNAKNTVYLQMNSLKPEDTAVYYCNKKVASYYRSYYYWGQGTQVTVSS | high polyreactivity
QVQLVESGGGLVQAGGSLRLSCAASGSTFYQYSMGLYRQAHVKEREFVAAITTIGGLTFYADSVKGRFTISRDNAKNTVYLQMHSLKPEDTAVYYCAAGYRAWDPYGHYGYWGQGTQVTVSS | high polyreactivity
QVQLVESGGGLVQAGGSLRLSCAASGSTFYRNAMGWYRQAPGKERELVAAISTRGSSTYYADSVKGRFTISRDNAKNTVYLQMNSLKPEDTAVYYCTADGIYPVLKFDYDYWGQGTQVTVSS | low polyreactivity
QVQLVESGGGLVQAGGSLRLSCAASGSTFYRNAMGWYRQAPGKERELVAAITSRGTRTFYADSVKGRFTISRDNAKNTVYLQMNSLKPEDTAVYYCAVTYQAEYEYDYWGQGTQVTVSS | low polyreactivity
QVQLVESGGGLVQAGGSLRLSCAASGSTFYRNAMGWYRQAPGKERELVAGISRRGGSTYYADSVKGRFTISRDNAKNSVYLQMNSLKPEDTAVYYCAADVRSGGVAYGYGYWGQGTQVTVSS | high polyreactivity
QVQLVESGGGLVQAGGSLRLSCAASGSTFYRYAMGWYRQAPGKERELVAAITSAGSTNYADSVKGRFTISRDNAKNTVYLQMNSLKPEDTAVYYCAADHGRPYFSYDYWGQGTQVTVSS | low polyreactivity
QVQLVESGGGLVQAGGSLRLSCAASGSTFYRYAMGWYRQAPGKERELVAAITWSGGSTYYADSVKGRFTISRDNAKNTVYLQMNSLKPEDTAVYYCNAVARYYYKDQTIIHSPREDYWGQGTQVTVSS | low polyreactivity

Sequence | polyreactivity (PSR sort gate)
QVQLVESGGGLVQAGGSLRLSCAASGSTFYRYTMGWYRQAPGKERELVAAITRSSGSTYYADSVKGRFTISRDNEKNTVYLQMNCLKPEDTAVYYCAAYVGGDRGFDYWGQGTQVTVSS | high polyreactivity
QVQLVESGGGLVQAGGSLRLSCAASGSTFYSNAMGWYRQAPGKERELVASISWSSGSTYYADSVKGRFTISRDNAKNTVYLQMNSLKPEDTAVYYCATDAGGPYRFGYWGQGTQVTVSS | low polyreactivity
QVQLVESGGGLVQAGGSLRLSCAASGSTFYSNAMGWYRQAPGKERELVATISQRGGRTYYADSVKGRFTISRDNAKNTVYLQMNSLKPEDTAVYYCAKAATSWYGRYGYDYWGQGTQVTVSS | low polyreactivity
QVQLVESGGGLVQAGGSLRLSCAASGSTFYSNVMGWYRQAPGKERELVAAISRSGGSTYYADSVKGRFTISRDNAKNTVYLQMNSLKPEDTAVYYCAARTYRRPYYSWGQGTQVTVSS | high polyreactivity
QVQLVESGGGLVQAGGSLRLSCAASGSTFYSYAMGWYRQAPGKERELVAAISSSAGSTYYADSVKGRFTISRDNAKNTVYLQMNSLKPEDTAVYYCAAPKRYGVRYGYWGQGTQVTVSS | high polyreactivity
QVQLVESGGGLVQAGGSLRLSCAASGSTFYSYAMGWYRQAPGKERELVAAISSSSGSTYYADSVKGRFTISRDNAKNTVYLQMNSLKPEDTAVYYCNRGRRYSHKYDYWGQGTQVTVSS | high polyreactivity
QVQLVESGGGLVQAGGSLRLSCAASGSTFYSYAMGWYRQAPGKERELVADIDWSGGSTYYADSVKGRFTISRDNAKNTVYLQMNSLKPEDTAVYYCNAERGATGYYVTGDDYWGQGTQVTVSS | low polyreactivity
QVQLVESGGGLVQAGGSLRLSCAASGSTFYSYTMGWYRQAPGKERELVAAISRSAGSTYYADSVKGRFTISRDHAKNTVYLQMNSLKPEVTAVYYCAATLGRTYYSRWYGMDYWGQGTQVTVSS | high polyreactivity
QVQLVESGGGLVQAGGSLRLSCAASGSTFYTNAMGWYRPAPGKVRELVAAISSSGDSTYYADSVKGRFTISRDNAKNTVYLQMKSLKPDDTAVYYCNADLRSYNGFRYYYWGQGTKVTVSS | low polyreactivity
QVQLVESGGGLVQAGGSLRLSCAASGSTFYTNAMGWYRQAPGKDRELVAVITSRGGGTYYADSVKGRFTISRDYAKNTVYLQMNRLKPEDTSVYYCAAYPLVSWGRHGTKGDYWGQGTQVTVSS | low polyreactivity
QVQLVESGGGLVQAGGSLRLSCAASGSTFYTNAMGWYRQAPGKERELFAAIRQSGGTTHYADSVKGRFTISRDNAKNTVYLLMNSLKPEDTAVYYCAAVSGGYSRRYRYGYWGQGTQVTVSS | high polyreactivity
QVQLVESGGGLVQAGGSLRLSCAASGSTFYTNAMGWYRQAPGKERELVAAITSSVGSTHYADSVKGRFTISRDNAKNTVYIQMNSLKPEDTAVYYCAATFGYGRYGYWGQGTQVTVSS | low polyreactivity
QVQLVESGGGLVQAGGSLRLSCAASGSTFYTNAMGWYRQAPGKERELVAASNYSGGSTYYADSVKGRFTISRDNAKNTVYLQMNSLKPEDTAVYYCATDLHWLVTKYGYWGQGTQVTVSS | low polyreactivity
QVQLVESGGGLVQAGGSLRLSCAASGSTFYTNAMGWYRQAPGKERELVAVITYRGGSTYYADSVKGRFTISRDNAKNTVYLQMNSLKPEDTAVYYCNARGTVPWYGYDYWGQGTQVTVSS | high polyreactivity
QVQLVESGGGLVQAGGSLRLSCAASGSTFYTNDMGWYRQAPGKERELVAAITSAGNTNYADSVKGSFTISRDNAKNTVYLQMNSLKPEDTAVYYYYYYQYDYWGQGTQVTVSS | low polyreactivity
QVQLVESGGGLVQAGGSLRLSCAASGSTFYTYAMGWYRQAPGKERELVAAINRSGGTTYYADSVKGRFTISRDNAKNTVYLQMNSLNPEDTAVYYCARRRYGYDYWGQGTQVTVSS | high polyreactivity
QVQLVESGGGLVQAGGSLRLSCAASGSTFYTYAMGWYRQAPGKERELVAAISNRGGSTRYADSVKGRFTISRDTAKNTVYLQMNSLKPEDTAVYYCAARVTQTGYYWGQGTQVTVSS | high polyreactivity
QVQLVESGGGLVQAGGSLRLSCAASGSTFYTYAMGWYRQAPGKERELVAAITRGGGRTYYADSVKGRFTISRDNAKNTVYLQMNSLKPEDTAVYYCAATVGYGHSYAGWYWVDYWGQGTQVTVSS | high polyreactivity
QVQLVESGGGLVQAGGSLRLSCAASGSTFYVNAMGWYRQAPGKERELVAAISWTDDSTYYADSVKGRFTISRDNAKNTVYLQMNSLKPEDTAVYYCAAEQYRYYEVEYWGQGTQVTVSS | high polyreactivity
QVQLVESGGGLVQAGGSLRLSCAASGSTFYVNDMGWYRQAPGKERELVAAIDWTGGTTYYADSVKGRFTISRDNAKNTVYLQMNSLKPEDTAVYYCAVDDSTVDYDYWGQGTQVTVSS | low polyreactivity
